The text below walks through data of patent US20250025549A1.

A value given as a limit tells only on which side of the number the result lay.

Experiment [1] has as its target dipeptidyl peptidase IV (DPP4), the MERS-CoV receptor, His-tagged (human) (UniProt P27487).
For experiment [2] the target is unchanged. The experiment is described as follows: ELISA, spike coated, His-tagged hDPP4 titrated.

Chain of dipeptidyl peptidase IV (DPP4), the MERS-CoV receptor, His-tagged (human) (P27487 29-766 limits assumed): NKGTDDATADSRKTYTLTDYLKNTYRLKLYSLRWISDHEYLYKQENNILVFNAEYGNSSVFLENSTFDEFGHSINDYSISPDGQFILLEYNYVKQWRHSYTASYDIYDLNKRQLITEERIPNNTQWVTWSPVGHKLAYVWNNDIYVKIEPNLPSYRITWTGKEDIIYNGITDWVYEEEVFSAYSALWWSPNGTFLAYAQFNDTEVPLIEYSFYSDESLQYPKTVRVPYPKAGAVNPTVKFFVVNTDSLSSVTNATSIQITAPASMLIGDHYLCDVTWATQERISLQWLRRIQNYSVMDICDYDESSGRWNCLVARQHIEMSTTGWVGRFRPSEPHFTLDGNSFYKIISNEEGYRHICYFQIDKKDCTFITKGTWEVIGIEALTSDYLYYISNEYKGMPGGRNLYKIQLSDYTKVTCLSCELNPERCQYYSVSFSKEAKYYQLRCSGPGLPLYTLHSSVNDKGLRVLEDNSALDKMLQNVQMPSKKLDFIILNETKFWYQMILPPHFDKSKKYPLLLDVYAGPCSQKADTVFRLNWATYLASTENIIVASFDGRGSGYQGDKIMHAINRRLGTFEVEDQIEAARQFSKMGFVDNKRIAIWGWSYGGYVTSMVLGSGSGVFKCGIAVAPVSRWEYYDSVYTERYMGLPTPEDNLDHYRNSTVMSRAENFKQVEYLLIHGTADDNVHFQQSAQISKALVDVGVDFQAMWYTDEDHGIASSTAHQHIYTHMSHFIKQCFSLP

“wild-type BV2361 protein (SEQ ID NO: 2), native SARS-CoV-2 Spike (S) polypeptide (from UniProt P0DTC2 14-1273) (other; other documents disagree on this pair)”: the IC50 in experiment [1] was above 5 µg/mL. Besides, the EC50 in experiment [2] is above 5 µg/mL.
